The labels stand for the following.
B2: full length STN1-Strep (STN1F-Strep) (natural protein)
chain: MQPGSSRCEEETPSLLWGLDPVFLAFAKLYIRDILDMKESRQVPGVFLYNGHPIKQVDVLGTVIGVRERDAFYSYGVDDSTGVINCICWKKLNTESVSAAPSAARELSLTSQLKKLQETIEQKTKIEIGDTIRVRGSIRTYREEREIHATTYYKVDDPVWNIQIARMLELPTIYRKVYDQPFHSSALEKEEALSNPGALDLPSLTSLLSEKAKEFLMENRVQSFYQQELEMVESLLSLANQPVIHSASSDQVNFKKDTTSKAIHSIFKNAIQLLQEKGLVFQKDDGFDNLYYVTREDKDLHRKIHRIIQQDCQKPNHMEKGCHFLHILACARLSIRPGLSEAVLQQVLELLEDQSDIVSTMEHYYTAF
B7: STN1N-Strep (domain or fragment)
chain: MQPGSSRCEEETPSLLWGLDPVFLAFAKLYIRDILDMKESRQVPGVFLYNGHPIKQVDVLGTVIGVRERDAFYSYGVDDSTGVINCICWKKLNTESVSAAPSAARELSLTSQLKKLQETIEQKTKIEIGDTIRVRGSIRTYREEREIHATTYYKVDDPVWNIQIARMLELPTIYRKVYDQPFHSSALEKE
B8: POLA2(1-334)-FG3 (domain or fragment)
chain: MSASAQQLAEELQIFGLDCEEALIEKLVELCVQYGQNEEGMVGELIAFCTSTHKVGLTSEILNSFEHEFLSKRLSKARHSTCKDSGHAGARDIVSIQELIEVEEEEEILLNSYTTPSKGSQKRAISTPETPLTKRSVSTRSPHQLLSPSSFSPSATPSQKYNSRSNRGEVVTSFGLAQGVSWSGRGGAGNISLKVLGCPEALTGSYKSMFQKLPDIREVLTCKIEELGSELKEHYKIEAFTPLLAPAQEPVTLLGQIGCDSNGKLNNKSVILEGDREHSSGAQIPVDLSELKEYSLFPGQVVIMEGINTTGRKLVATKLYEGVPLPFYQPTEED

In assay [1] the target is B7. The experiment in a line: pull-down.
For assay [2], the target named is T1, POLA2(1-414)-FG3 (human, UniProt Q14181 1-414).
T1 sequence: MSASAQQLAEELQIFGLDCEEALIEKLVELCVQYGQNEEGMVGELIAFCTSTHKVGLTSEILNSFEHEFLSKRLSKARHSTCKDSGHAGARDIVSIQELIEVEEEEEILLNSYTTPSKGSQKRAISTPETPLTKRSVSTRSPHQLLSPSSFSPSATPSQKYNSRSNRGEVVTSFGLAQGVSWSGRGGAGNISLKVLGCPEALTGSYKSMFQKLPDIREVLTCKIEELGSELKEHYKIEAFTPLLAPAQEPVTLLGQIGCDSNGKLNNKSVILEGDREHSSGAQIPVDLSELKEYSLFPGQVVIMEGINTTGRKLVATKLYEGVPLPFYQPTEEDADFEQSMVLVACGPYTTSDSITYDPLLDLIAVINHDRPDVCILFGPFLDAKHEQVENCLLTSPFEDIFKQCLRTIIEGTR
Put plainly: pull-down.

For assay [3], the target named is T2, POLA2-FLAG (human, UniProt Q14181 1-598).
T2 sequence: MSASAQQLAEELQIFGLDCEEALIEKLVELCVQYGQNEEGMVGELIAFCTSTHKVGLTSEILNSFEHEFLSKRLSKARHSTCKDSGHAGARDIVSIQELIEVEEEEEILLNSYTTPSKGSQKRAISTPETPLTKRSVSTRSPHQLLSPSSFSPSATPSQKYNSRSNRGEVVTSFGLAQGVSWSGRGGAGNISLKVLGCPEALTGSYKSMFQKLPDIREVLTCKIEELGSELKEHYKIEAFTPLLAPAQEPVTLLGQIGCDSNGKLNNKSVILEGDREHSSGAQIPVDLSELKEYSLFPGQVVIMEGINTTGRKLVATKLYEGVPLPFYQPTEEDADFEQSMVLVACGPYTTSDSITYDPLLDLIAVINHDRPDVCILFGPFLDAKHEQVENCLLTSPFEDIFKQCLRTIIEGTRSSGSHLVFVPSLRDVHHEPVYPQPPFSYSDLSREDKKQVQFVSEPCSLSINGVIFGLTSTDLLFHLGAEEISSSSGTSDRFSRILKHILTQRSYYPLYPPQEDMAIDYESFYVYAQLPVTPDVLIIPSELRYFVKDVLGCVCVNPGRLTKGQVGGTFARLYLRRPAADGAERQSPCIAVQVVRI
Put plainly: cell-based or functional assay.

The target of assay [4] is B8. Put plainly: pull-down.
The target of assay [5] is B2. Put plainly: pull-down.

B1: POLA2OB-FG3 (domain or fragment)
chain: GSYKSMFQKLPDIREVLTCKIEELGSELKEHYKIEAFTPLLAPAQEPVTLLGQIGCDSNGKLNNKSVILEGDREHSSGAQIPVDLSELKEYSLFPGQVVIMEGINTTGRKLVATKLYEGVPLPFYQPTEED
In the case of B1, the binding result in assay [1] is “binds”.

For B2, the binding result in assay [2] is listed as “binds”.

B3: STN1N-Strep R135T (domain or fragment)
chain: MQPGSSRCEEETPSLLWGLDPVFLAFAKLYIRDILDMKESRQVPGVFLYNGHPIKQVDVLGTVIGVRERDAFYSYGVDDSTGVINCICWKKLNTESVSAAPSAARELSLTSQLKKLQETIEQKTKIEIGDTIRVTGSIRTYREEREIHATTYYKVDDPVWNIQIARMLELPTIYRKVYDQPFHSSALEKE
As to B3, the “PP stimulatory activity against wild-type STN1N (1.5 uM, poly-dT template)” value in assay [3] was determined as 2 fold.

B4: STN1N-Strep D157Y (domain or fragment)
chain: MQPGSSRCEEETPSLLWGLDPVFLAFAKLYIRDILDMKESRQVPGVFLYNGHPIKQVDVLGTVIGVRERDAFYSYGVDDSTGVINCICWKKLNTESVSAAPSAARELSLTSQLKKLQETIEQKTKIEIGDTIRVRGSIRTYREEREIHATTYYKVDYPVWNIQIARMLELPTIYRKVYDQPFHSSALEKE
B4: the binding result in assay [2] is recorded as “binds”.

B5: STN1N-Strep R135W (domain or fragment)
chain: MQPGSSRCEEETPSLLWGLDPVFLAFAKLYIRDILDMKESRQVPGVFLYNGHPIKQVDVLGTVIGVRERDAFYSYGVDDSTGVINCICWKKLNTESVSAAPSAARELSLTSQLKKLQETIEQKTKIEIGDTIRVWGSIRTYREEREIHATTYYKVDDPVWNIQIARMLELPTIYRKVYDQPFHSSALEKE
B5: the binding result in assay [2] is on record as “binds”.

B6: STN1N-Strep OBM-2 (W89A/R139A/Y141A) (domain or fragment)
chain: MQPGSSRCEEETPSLLWGLDPVFLAFAKLYIRDILDMKESRQVPGVFLYNGHPIKQVDVLGTVIGVRERDAFYSYGVDDSTGVINCICAKKLNTESVSAAPSAARELSLTSQLKKLQETIEQKTKIEIGDTIRVRGSIATAREEREIHATTYYKVDDPVWNIQIARMLELPTIYRKVYDQPFHSSALEKE
Turning to B6, the binding result in assay [2] was “binds”.

In the case of B7, the binding result in assay [4] and in assay [2] was “binds” each time.

Turning to B8, the binding result in assay [5] is recorded as “binds”.

The values are drawn from paper PMC5766158 (Nucleic Acids Research, 2017).
